# Like-named read-outs stand apart in the source and are kept apart here. Marks after values point to notes of the source that are not given here.
# Experiments:
# [1] = test system: alcohol dehydrogenase from Brevibacterium sp KU; conditions: oxidation of alcohols; activity of 2-phenylethanol taken as 100%; cited from earlier work
# [2] = test system: alcohol dehydrogenase from Brevibacterium sp KU 1309; conditions: reduction of carbonyl compounds; cited from earlier work
# [3] = target: T1, L(+)-lactate dehydrogenase from A. eutrophus (R. eutropha ldhA) (Cupriavidus necator, UniProt Q07251); conditions: compared with that on pyruvate; cited from earlier work
# T1 sequence (Q07251 1-349): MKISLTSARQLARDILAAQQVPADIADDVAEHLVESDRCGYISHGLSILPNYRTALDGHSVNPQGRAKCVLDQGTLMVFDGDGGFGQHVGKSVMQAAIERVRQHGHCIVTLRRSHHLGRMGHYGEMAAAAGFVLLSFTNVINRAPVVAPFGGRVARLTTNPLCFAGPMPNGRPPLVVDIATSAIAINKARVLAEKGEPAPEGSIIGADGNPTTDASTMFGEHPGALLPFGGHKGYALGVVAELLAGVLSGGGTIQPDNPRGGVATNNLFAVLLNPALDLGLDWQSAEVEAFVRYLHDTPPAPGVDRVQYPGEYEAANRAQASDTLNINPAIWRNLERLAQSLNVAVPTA
# [4] = test system: cytochrome oxidases from E. coli; conditions: cited from earlier work; for Km: read-out: Km for O2
# [5] = test system: NADH dehydrogenases and cytochrome oxidases; conditions: aerobic growth, from Noguchi et al., 2004, cited from earlier work
# [6] = host strain ECKh-432 with pZS*13S plasmid, culture supernatant, micro-aerobic
# Protocol for 1,4-butanediol pathway: Ten mL micro-aerobic cultures were started by inoculating fresh minimal in vivo conversion medium (see below) containing the appropriate antibiotics with 1% of the first cultures.
# Microaerobic conditions were established by initially flushing capped anaerobic bottles with nitrogen for 5 minutes, then piercing the septum with an 18G needle following inoculation. The needle was kept in the bottle during growth to allow a small amount of air to enter the bottles. Protein expression was induced with 0.2 mM IPTG when the culture reached mid-log growth phase. This is considered: time=0 hr.
molecule,measurement,setting,value
CC(O)c1ccccc1 (stereo not shown) [1-Phenylethanol],Relative Activity,[1],46 0%
CC(C=O)c1ccccc1 (stereo not shown) [2-Phenylpropionaldehyde],Km,[2],864 µM
CCC(C)C(=O)C(=O)O (stereo not shown) [3-Methyl-2-oxovalerate],Activity (%) of L(+)-lactate dehydrogenase from A. eutrophus,[3],5.3%
CC(C)CC(=O)C(=O)O [4-Methyl-2-oxopentanoate],Activity (%) of L(+)-lactate dehydrogenase from A. eutrophus,[3],39.0%
C[C@@H](CO)c1ccccc1 [(R)-2-Phenylpropanol],Relative Activity,[1],63 0%
CCO [Ethanol],Relative Activity,[1],76 0%
O=CC(=O)O [Glyoxylate],Activity (%) of L(+)-lactate dehydrogenase from A. eutrophus,[3],8.7%
O=CCc1ccccc1 [Phenylacetaldehyde],Km,[2],261 µM
"CCCCCCCCCCCCO [Sample 1-Dodecanol, 1-Dodecanol]",Relative Activity,[1],68 0%
"CC(C)O [Sample 2-Propanol, 2-Propanol]",Relative Activity,[1],54 0%
cytochrome bd oxidase: E. coli cytochrome bd oxidase (cyd operon),Km,[4],0.01 µM
"cytochrome bo oxidase: E. coli cytochrome bo oxidase (cyo operon) (protein, UniProt P0ABJ1 25-315; P0ABI8 1-663; P0ABJ3 1-204; P0ABJ6 1-109, looked up) Cytochrome bo(3) ubiquinol … 1: CNSALLDPKGQIGLEQRSLILTAFGLMLIVVIPAILMAVGFAWKYRASNKDAKYSPNWSHSNKVEAVVWTVPILIIIFLAVLTWKTTHALEPSKPLAHDEKPITIEVVSMDWKWFFIYPEQGIATVNEIAFPANTPVYFKVTSNSVMNSFFIPRLGSQIYAMAGMQTRLHLIANEPGTYDGISASYSGPGFSGMKFKAIATPDRAAFDQWVAKAKQSPNTMSDMAAFEKLAAPSEYNQVEYFSNVKPDLFADVINKFMAHGKSMDMTQPEGEHSAHEGMEGMDMSHAESAH Cytochrome bo(3) ubiquinol … 2: MFGKLSLDAVPFHEPIVMVTIAGIILGGLALVGLITYFGKWTYLWKEWLTSVDHKRLGIMYIIVAIVMLLRGFADAIMMRSQQALASAGEAGFLPPHHYDQIFTAHGVIMIFFVAMPFVIGLMNLVVPLQIGARDVAFPFLNNLSFWFTVVGVILVNVSLGVGEFAQTGWLAYPPLSGIEYSPGVGVDYWIWSLQLSGIGTTLTGINFFVTILKMRAPGMTMFKMPVFTWASLCANVLIIASFPILTVTVALLTLDRYLGTHFFTNDMGGNMMMYINLIWAWGHPEVYILILPVFGVFSEIAATFSRKRLFGYTSLVWATVCITVLSFIVWLHHFFTMGAGANVNAFFGITTMIIAIPTGVKIFNWLFTMYQGRIVFHSAMLWTIGFIVTFSVGGMTGVLLAVPGADFVLHNSLFLIAHFHNVIIGGVVFGCFAGMTYWWPKAFGFKLNETWGKRAFWFWIIGFFVAFMPLYALGFMGMTRRLSQQIDPQFHTMLMIAASGAVLIALGILCLVIQMYVSIRDRDQNRDLTGDPWGGRTLEWATSSPPPFYNFAVVPHVHERDAFWEMKEKGEAYKKPDHYEEIHMPKNSGAGIVIAAFSTIFGFAMIWHIWWLAIVGFAGMIITWIVKSFDEDVDYYVPVAEIEKLENQHFDEITKAGLKNGN Cytochrome bo(3) ubiquinol … 3: MATDTLTHATAHAHEHGHHDAGGTKIFGFWIYLMSDCILFSILFATYAVLVNGTAGGPTGKDIFELPFVLVETFLLLFSSITYGMAAIAMYKNNKSQVISWLALTWLFGAGFIGMEIYEFHHLIVNGMGPDRSGFLSAFFALVGTHGLHVTSGLIWMAVLMVQIARRGLTSTNRTRIMCLSLFWHFLDVVWICVFTVVYLMGAM Cytochrome bo(3) ubiquinol … 4: MSHSTDHSGASHGSVKTYMTGFILSIILTVIPFWMVMTGAASPAVILGTILAMAVVQVLVHLVCFLHMNTKSDEGWNMTAFVFTVLIIAILVVGSIWIMWNLNYNMMMH",Km,[4],~1 µM
"Cytochrome bo (protein, UniProt P0ABJ1 25-315; P0ABI8 1-663; P0ABJ3 1-204; P0ABJ6 1-109, looked up) Cytochrome bo(3) ubiquinol … 1: CNSALLDPKGQIGLEQRSLILTAFGLMLIVVIPAILMAVGFAWKYRASNKDAKYSPNWSHSNKVEAVVWTVPILIIIFLAVLTWKTTHALEPSKPLAHDEKPITIEVVSMDWKWFFIYPEQGIATVNEIAFPANTPVYFKVTSNSVMNSFFIPRLGSQIYAMAGMQTRLHLIANEPGTYDGISASYSGPGFSGMKFKAIATPDRAAFDQWVAKAKQSPNTMSDMAAFEKLAAPSEYNQVEYFSNVKPDLFADVINKFMAHGKSMDMTQPEGEHSAHEGMEGMDMSHAESAH Cytochrome bo(3) ubiquinol … 2: MFGKLSLDAVPFHEPIVMVTIAGIILGGLALVGLITYFGKWTYLWKEWLTSVDHKRLGIMYIIVAIVMLLRGFADAIMMRSQQALASAGEAGFLPPHHYDQIFTAHGVIMIFFVAMPFVIGLMNLVVPLQIGARDVAFPFLNNLSFWFTVVGVILVNVSLGVGEFAQTGWLAYPPLSGIEYSPGVGVDYWIWSLQLSGIGTTLTGINFFVTILKMRAPGMTMFKMPVFTWASLCANVLIIASFPILTVTVALLTLDRYLGTHFFTNDMGGNMMMYINLIWAWGHPEVYILILPVFGVFSEIAATFSRKRLFGYTSLVWATVCITVLSFIVWLHHFFTMGAGANVNAFFGITTMIIAIPTGVKIFNWLFTMYQGRIVFHSAMLWTIGFIVTFSVGGMTGVLLAVPGADFVLHNSLFLIAHFHNVIIGGVVFGCFAGMTYWWPKAFGFKLNETWGKRAFWFWIIGFFVAFMPLYALGFMGMTRRLSQQIDPQFHTMLMIAASGAVLIALGILCLVIQMYVSIRDRDQNRDLTGDPWGGRTLEWATSSPPPFYNFAVVPHVHERDAFWEMKEKGEAYKKPDHYEEIHMPKNSGAGIVIAAFSTIFGFAMIWHIWWLAIVGFAGMIITWIVKSFDEDVDYYVPVAEIEKLENQHFDEITKAGLKNGN Cytochrome bo(3) ubiquinol … 3: MATDTLTHATAHAHEHGHHDAGGTKIFGFWIYLMSDCILFSILFATYAVLVNGTAGGPTGKDIFELPFVLVETFLLLFSSITYGMAAIAMYKNNKSQVISWLALTWLFGAGFIGMEIYEFHHLIVNGMGPDRSGFLSAFFALVGTHGLHVTSGLIWMAVLMVQIARRGLTSTNRTRIMCLSLFWHFLDVVWICVFTVVYLMGAM Cytochrome bo(3) ubiquinol … 4: MSHSTDHSGASHGSVKTYMTGFILSIILTVIPFWMVMTGAASPAVILGTILAMAVVQVLVHLVCFLHMNTKSDEGWNMTAFVFTVLIIAILVVGSIWIMWNLNYNMMMH",Vmax,"[4]; from Bekker et al., 2009",225^c mol O/mol cytochrome bd/s
"GNM_720: car gene, carboxylic acid reductase from Nocardia iowensis (protein, listed as Nocardia iowensis) MAVDSPDERLQRRIAQLFAEDEQVKAARPLEAVSAAVSAPGMRLAQIAATVMAGYADRPAAGQRAFELNTDDATGRTSLRLLPRFETITYRELWQRVGEVAAAWHHDPENPLRAGDFVALLGFTSIDYATLDLADIHLGAVTVPLQASAAVSQLIAILTETSPRLLASTPEHLDAAVECLLAGTTPERLVVFDYHPEDDDQRAAFESARRRLADAGSLVIVETLDAVRARGRDLPAAPLFVPDTDDDPLALLIYTSGSTGTPKGAMYTNRLAATMWQGNSMLQGNSQRVGINLNYMPMSHIAGRISLFGVLARGGTAYFAAKSDMSTLFEDIGLVRPTEIFFVPRVCDMVFQRYQSELDRRSVAGADLDTLDREVKADLRQNYLGGRFLVAVVGSAPLAAEMKTFMESVLDLPLHDGYGSTEAGASVLLDNQIQRPPVLDYKLVDVPELGYFRTDRPHPRGELLLKAETTIPGYYKRPEVTAEIFDEDGFYKTGDIVAELEHDRLVYVDRRNNVLKLSQGEFVTVAHLEAVFASSPLIRQIFIYGSSERSYLLAVIVPTDDALRGRDTATLKSALAESIQRIAKDANLQPYEIPRDFLIETEPFTIANGLLSGIAKLLRPNLKERYGAQLEQMYTDLATGQADELLALRREAADLPVLETVSRAAKAMLGVASADMRPDAHFTDLGGDSLSALSFSNLLHEIFGVEVPVGVVVSPANELRDLANYIEAERNSGAKRPTFTSVHGGGSEIRAADLTLDKFIDARTLAAADSIPHAPVPAQTVLLTGANGYLGRFLCLEWLERLDKTGGTLICVVRGSDAAAARKRLDSAFDSGDPGLLEHYQQLAARTLEVLAGDIGDPNLGLDDATWQRLAETVDLIVHPAALVNHVLPYTQLFGPNVVGTAEIVRLAITARRKPVTYLSTVGVADQVDPAEYQEDSDVREMSAVRVVRESYANGYGNSKWAGEVLLREAHDLCGLPVAVFRSDMILAHSRYAGQLNVQDVFTRLILSLVATGIAPYSFYRTDADGNRQRAHYDGLPADFTAAAITALGIQATEGFRTYDVLNPYDDGISLDEFVDWLVESGHPIQRITDYSDWFHRFETAIRALPEKQRQASVLPLLDAYRNPCPAVRGAILPAKEFQAAVQTAKIGPEQDIPHLSAPLIDKYVSDLELLQLL",BDO formation in ECKh-432,"1,4-butanediol pathway",required for BDO formation
same,ETOHEnz (ethanol),"1,4-butanediol pathway; [6]",>LLOQ
same,GBL (gamma-butyrolactone),"1,4-butanediol pathway; [6]",0.07 mM
same,LA (lactate),"1,4-butanediol pathway; [6]",0.10 mM
same,SA (succinate),"1,4-butanediol pathway; [6]",0.00 mM
"NDH-2 (protein, UniProt P00393 2-434, looked up) Type II NADH:quinone …: TTPLKKIVIVGGGAGGLEMATQLGHKLGRKKKAKITLVDRNHSHLWKPLLHEVATGSLDEGVDALSYLAHARNHGFQFQLGSVIDIDREAKTITIAELRDEKGELLVPERKIAYDTLVMALGSTSNDFNTPGVKENCIFLDNPHQARRFHQEMLNLFLKYSANLGANGKVNIAIVGGGATGVELSAELHNAVKQLHSYGYKGLTNEALNVTLVEAGERILPALPPRISAAAHNELTKLGVRVLTQTMVTSADEGGLHTKDGEYIEADLMVWAAGIKAPDFLKDIGGLETNRINQLVVEPTLQTTRDPDIYAIGDCASCPRPEGGFVPPRAQAAHQMATCAMNNILAQMNGKPLKNYQYKDHGSLVSLSNFSTVGSLMGNLTRGSMMIEGRIARFVYISLYRMHQIALHGYFKTGLMMLVGSINRVIRPRLKLH",Concentrations of NADH dehydrogenases and cytochrome oxidase,[5]; Limited glucose (early stationary),0.70 ± 0.03 μmol/s/mg of protein
same,Concentrations of NADH dehydrogenases and cytochrome oxidase,[5]; Standard glucose (early stationary: 8 h),0.88 ± 0.01 μmol/s/mg of protein
same,Concentrations of NADH dehydrogenases and cytochrome oxidase,[5]; Standard glucose (exponential: 3 h),1.11 ± 0.06 μmol/s/mg of protein
same,Concentrations of NADH dehydrogenases and cytochrome oxidase,[5]; Standard glucose (exponential: 5 h),0.86 ± 0.03 μmol/s/mg of protein
